Residue numbers refer to the chain shown, from its start. Where two headings read alike, the source gives them in different places.

The target in assay [1] is T1, human FcγRI, His6-tagged (human, UniProt P12314 16-288).
T1 construct: also called FcG RI
Nature of the assay: SPR, 1:1 kinetic. The procedure:
(§1) Interaction affinities for IgGs were determined by surface plasmon resonance using a BIACORE® T200 instrument. For most analyses, His6-tagged FcγRI, FcγRIIa (167R and 167H variants), FcγRIIb, FcγRIIIa (176F and 176 V variants), and FcγRIIIb receptors (all Sino Biological) were captured on a CM5 sensor chip coated with an anti-HIS antibody by standard amine coupling. Receptor-specific formats of analyses were then applied, as below.
Regeneration with 2× injections glycine pH 1.5 and analysis using 1:1 fit.
Background: SPR reads the build-up and loss of mass on a sensor chip optically.

The target in assay [2] is T2, human FcγRIIa 167H variant, His6-tagged (human, UniProt P12318 34-218).
T2 construct: also called FcG RIIa (167H)
T2 sequence (looked up): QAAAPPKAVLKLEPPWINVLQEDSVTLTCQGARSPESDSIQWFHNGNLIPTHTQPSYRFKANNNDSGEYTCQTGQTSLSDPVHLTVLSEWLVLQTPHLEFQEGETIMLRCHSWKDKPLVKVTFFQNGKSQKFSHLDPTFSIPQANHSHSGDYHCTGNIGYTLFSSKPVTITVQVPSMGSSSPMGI
As to the kind of experiment: SPR, steady state. As for the experimental part: as §1

Assay [3] has as its target T3, human FcγRIIb, His6-tagged (human, UniProt P31994 43-217).
T3 construct: also called FcG RIIb
T3 sequence (looked up): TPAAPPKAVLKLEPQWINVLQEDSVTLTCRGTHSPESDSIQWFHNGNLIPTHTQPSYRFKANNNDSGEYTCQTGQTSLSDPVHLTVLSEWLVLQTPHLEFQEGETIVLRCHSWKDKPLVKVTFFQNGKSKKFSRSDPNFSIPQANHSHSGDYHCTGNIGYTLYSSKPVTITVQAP
As to the kind of experiment: SPR, steady state. As for the experimental part: as §1

Assay [4] deals with T4, human FcγRIIIa 176F variant, His6-tagged (human, UniProt P08637 17-208).
T4 construct: also called FcG RIIIa (176F)
T4 sequence (P08637 17-208 limits assumed, change not shown): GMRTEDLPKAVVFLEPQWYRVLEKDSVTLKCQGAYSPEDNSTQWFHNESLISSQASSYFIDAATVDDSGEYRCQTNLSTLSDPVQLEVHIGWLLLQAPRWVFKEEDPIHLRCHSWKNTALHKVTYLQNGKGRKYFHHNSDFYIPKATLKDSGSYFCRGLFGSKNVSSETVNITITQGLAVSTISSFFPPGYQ
Nature of the assay: SPR, steady state. As for the experimental part: as §1

Assay [5] addresses T5, human FcγRIIIa 176V variant, His6-tagged (human, UniProt P08637 17-208).
T5 construct: also called FcG RIIIa (176V)
Nature of the assay: SPR, steady state. As for the experimental part:
as §1

The target in assay [6] is T6, human FcγRIIIb, His6-tagged (human, UniProt O75015 17-200).
T6 construct: also called FcG RIIIb
T6 sequence (O75015 17-200 limits assumed): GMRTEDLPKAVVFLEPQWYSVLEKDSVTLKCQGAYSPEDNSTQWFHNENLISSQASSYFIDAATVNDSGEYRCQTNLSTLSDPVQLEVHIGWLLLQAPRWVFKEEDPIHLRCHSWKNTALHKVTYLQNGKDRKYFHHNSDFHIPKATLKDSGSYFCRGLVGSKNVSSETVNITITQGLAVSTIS
Nature of the assay: SPR, steady state. As for the experimental part:
as §1

Assay [7] addresses T7, human FcγRIIa 167R variant, His6-tagged (human, UniProt P12318 34-218).
T7 construct: also called FcG RIIa (167R)
T7 sequence (looked up): T2 sequence (looked up) with H134R
As to the kind of experiment: SPR, steady state. The procedure:
as §1

The target in assay [8] is T8, human FcRn (human, UniProt P55899 24-297, limits assumed).
T8 construct: also called hFcRn
T8 sequence (P55899 24-297 limits assumed, form in doubt): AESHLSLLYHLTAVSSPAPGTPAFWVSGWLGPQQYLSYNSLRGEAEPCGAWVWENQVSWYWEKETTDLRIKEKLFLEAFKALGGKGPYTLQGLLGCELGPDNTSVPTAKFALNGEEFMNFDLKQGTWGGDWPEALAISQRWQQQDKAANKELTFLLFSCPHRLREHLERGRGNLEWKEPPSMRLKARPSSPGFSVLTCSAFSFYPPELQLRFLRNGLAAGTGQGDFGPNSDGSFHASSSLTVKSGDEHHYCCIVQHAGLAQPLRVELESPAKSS
Nature of the assay: SPR, steady state, pH 6. As for the experimental part: The interactions between monomeric IgG and FcRn are relatively low affinity and pH-sensitive interactions, so ‘steady state’ affinity analyses were performed under the following conditions: A CM5 chip was directly coupled with hFcRn in sodium acetate pH 5.5 using standard amine chemistry. Running buffer was PBS 0.05% P20+150 mM NaCl (pH 6.0 or pH 7.4), flow rate 30 μl/min, 5 point three-fold dilutions of purified antibodies from 3000 nM to 37.0 nM applied with an association time of 18s, dissociation time 100 s.

In assay [9] the target is T9, cynomolgus monkey C-KIT-Fc protein (cynomolgus monkey).
T9 construct: also called cyno C-KIT-Fc; cyno C-KIT
Nature of the assay: direct ELISA, IgG at 1 µg/ml. For orientation: In an ELISA, binding on a coated surface is turned into a signal by an enzyme label.

In assay [10] the target is T9, cynomolgus monkey C-KIT-Fc protein. Nature of the assay: HTRF competition vs terbium-labelled h37M IgG1. On the technique in general: TR-FRET usually uses a lanthanide donor and a delayed reading to cut background.
The target is the same in assay [11]. As to the kind of experiment: HTRF competition vs terbium-labelled h37M IgG1. This is another data set of the same source.
Assay [12] deals with cynomolgus C-KIT on stably transfected CHO-K1 cells (cynomolgus monkey). Nature of the assay: cell-based or functional assay.

T5 sequence (P08637 other isoform, or with tags, fused parts or gaps mutant limits assumed): as the sequence (P08637 17-208 limits assumed, change not shown) above, with F160V counted along it
T1 sequence (P12314 16-288 limits assumed): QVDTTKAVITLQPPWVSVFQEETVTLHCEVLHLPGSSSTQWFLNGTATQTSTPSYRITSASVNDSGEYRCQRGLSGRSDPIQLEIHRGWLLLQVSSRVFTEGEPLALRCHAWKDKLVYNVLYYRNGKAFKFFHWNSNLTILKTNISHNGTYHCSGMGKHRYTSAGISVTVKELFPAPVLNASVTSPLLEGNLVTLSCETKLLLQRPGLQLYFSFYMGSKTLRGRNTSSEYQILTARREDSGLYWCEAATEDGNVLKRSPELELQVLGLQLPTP

B1: h37M IgG1 (antibody)
heavy: not shown
VL: DIVMTQSPSSLSASVGDRVTITCKASQNVRTNVAWYQQKPGKAPKALIYSASYRYSGVPDRFTGSGSGTDFTLTISSLQPEDFADYFCQQYNSYPRTFGGGTKVEIK
notes: Humanized 37M, human IgG1; Terbium-labelled as tracer in HTRF; also called C-KIT-h37M; IgG1-h37M; copies: 2 + 2
With B1, the dissociation constant Kd (as a rule, the equilibrium constant for the complex coming apart) in [1] was determined as 1.06 nM; in assay [2], 512 nM; in [3], 1440 nM; in [4] it was 82 nM; in assay [5] it was 41.1 nM; in assay [6] it was 249 nM. Also, the Kd in assay [7] was 447 nM; in [8], 1240 nM. The OD450 nm in [9] is above 2 OD450 nm. The IC50 (in general, the point on the concentration scale where inhibition reaches its midpoint) in [10] is 0.035 µg/mL; in assay [11], 0.036 µg/mL.

B2: MH1 IgG1-3M (antibody, V domains shown)
VH: QVQLVQSGAEVKKPGASVKVSCKASGYTFTDYYMNWVRQAPGQGLEWMGRIYPGSGNTYYAQKFQGRVTMTRDTSTSTVYMELSSLRSEDTAVYYCARGVYYYDYWGQGTLVTVSS
VL: DIQMTQSPSSLSASVGDRVTITCRASQGIRTNLAWFQQKPGKAPKSLIYAASSLQSGVPSRFSGSGSGTDFTLTISSLQPEDFATYYCQQYNSYPRTFGGGTKVEIK
As to B2, in assay [12], the “Cyno C-KIT CHO FabZAP IC50 (pM)” value amounted to 14 pM.

B3: MH5-DI IgG1-3M (antibody, V domains shown)
VH: B2 VH
VL: B2 VL with N92A, S93N
In the case of B3, the “Cyno C-KIT CHO FabZAP IC50 (pM)” value in [12] was found to be 13.5 pM.

B4: MH5.22 (antibody, human IgG1, V domains shown)
VH: B2 VH with Y32F, G54A, Y101W
VL: B2 VL with N92A, S93N
notes: graft frameworks; substitutions derived; human IgG1; also called C-KIT-MH5.22
In the case of B4, the OD450 nm in [9] was above 2 OD450 nm. Besides, the IC50 in assay [11] was found to be 0.164 µg/mL.

B5: E-C7 (antibody, human IgG1, V domains shown)
VH: B2 VH
VL: B2 VL with A50S
notes: human IgG1; also called C-KIT-E-C7
Consider B5, for which, in assay [9], the OD450 nm is above 2 OD450 nm. Also, the IC50 in [10] stood at 0.051 µg/mL.

B6: MH5.35 (antibody, human IgG1, V domains shown)
VH: B2 VH with D31N, G54A, Y101W, Y103F, Y105T
VL: B2 VL with N92A, S93N
notes: graft frameworks; substitutions derived; human IgG1; also called C-KIT-MH5.35
For B6, the IC50 in [11] was found to be 0.785 µg/mL.

B7: MH5.1 (antibody, human IgG1, V domains shown)
VH: B2 VH with D31N, S55T, Y101W
VL: B2 VL with N92A, S93N
notes: graft frameworks; substitutions derived; human IgG1; also called C-KIT-MH5.1
Molecule B7 registered an IC50 in assay [11] of 0.633 µg/mL.

B8: MH5 IgG1 (antibody, V domains shown)
VH: B2 VH
VL: B2 VL with A50S, N92A, S93N
notes: human IgG1; also called C-KIT-MH5
Turning to B8, in [9], the OD450 nm is above 2 OD450 nm. The IC50 is 0.036 µg/mL in assay [10] and 0.058 µg/mL in assay [11].

B9: MH5.34 (antibody, human IgG1, V domains shown)
VH: B2 VH with D31N, G54A, Y101W, Y103F, Y105S
VL: B2 VL with N92A, S93N
notes: graft frameworks; substitutions derived; human IgG1; also called C-KIT-MH5.34
In [11], B9 had an IC50 of 0.532 µg/mL.

B10: C-B12 (antibody, human IgG1, V domains shown)
VH: B2 VH with Y102E, Y103F
VL: B2 VL with I29V, T31N, S53Y, L54R
notes: graft frameworks; substitutions derived; human IgG1; also called C-KIT-C-B12
Molecule B10 showed an IC50 in [10] of 0.166 µg/mL.

B11: MH1 IgG1 (antibody, V domains shown)
VH: B2 VH
VL: B2 VL
notes: human IgG1; also called IgG1-MH1; C-KIT-MH1
Molecule B11 showed an OD450 nm in assay [9] above 2 OD450 nm.

B12: D-A10 (antibody, human IgG1, V domains shown)
VH: B2 VH with Y103F, Y105T
VL: B2 VL with I29V, L54R
notes: graft frameworks; substitutions derived; human IgG1; also called C-KIT-D-A10
For B12, the IC50 in [10] turned out to be 0.059 µg/mL.

B13: F-C5 (antibody, human IgG1, V domains shown)
VH: B2 VH with Y103F, Y105E
VL: B2 VL with I29V, L54R
notes: human IgG1; also called C-KIT-F-C5
On to B13, for which the IC50 in assay [10] was 0.079 µg/mL.

B14: F-F2 (antibody, human IgG1, V domains shown)
VH: B2 VH with Y103Q
VL: B2 VL with I29V, L33V, L54R
notes: graft frameworks; substitutions derived; human IgG1; also called C-KIT-F-F2
In [10], B14 yielded an IC50 of 0.121 µg/mL.

B15: E-E10 (antibody, human IgG1, V domains shown)
VH: B2 VH with Y101W, Y103F
VL: B2 VL with I29V, L33V, A50S
notes: graft frameworks; substitutions derived; human IgG1; also called C-KIT-E-E10
Regarding B15, in [10], the IC50 was 0.097 µg/mL.

B16: MH5.2 (antibody, human IgG1, V domains shown)
VH: B2 VH with Y32F, S55T, Y101W
VL: B2 VL with N92A, S93N
notes: graft frameworks; substitutions derived; human IgG1; also called C-KIT-MH5.2
The molecule B16 returned an IC50 in assay [11] of 0.254 µg/mL.

B17: MH5.24 (antibody, human IgG1, V domains shown)
VH: B2 VH with Y32F, G54A, Y101W, Y103F, Y105T
VL: B2 VL with N92A, S93N
notes: graft frameworks; substitutions derived; human IgG1; also called C-KIT-MH5.24
For the molecule B17, the IC50 in assay [11] was 2.74 µg/mL.

B18: C-A7 (antibody, human IgG1, V domains shown)
VH: B2 VH with M48I, Y103F, Y105S
VL: B2 VL with I29V, T31N, L33V, A50Y
notes: graft frameworks; substitutions derived; human IgG1; also called C-KIT-C-A7
On to B18, for which, in [10], the IC50 was 0.081 µg/mL.

B19: E-C2 (antibody, human IgG1, V domains shown)
VH: B2 VH with Y103L
VL: B2 VL with L33V, F36L, A50S, S53Y, L54R
notes: human IgG1; also called C-KIT-E-C2
In the case of B19, the OD450 nm in assay [9] was above 2 OD450 nm.

B20: MH5.23 (antibody, human IgG1, V domains shown)
VH: B2 VH with Y32F, G54A, Y101W, Y103F, Y105S
VL: B2 VL with N92A, S93N
notes: graft frameworks; substitutions derived; human IgG1; also called C-KIT-MH5.23
Regarding B20, the IC50 in [11] was 3.26 µg/mL.

B21: MH11 (antibody, human IgG1, V domains shown)
VH: B2 VH
VL: B2 VL with S93A
notes: graft frameworks; substitutions derived; human IgG1; also called C-KIT-MH11
B21 had an IC50 in assay [10] of 0.101 µg/mL.

(Values after patent US20230212285A1 (published 2023).)
